The values that follow come from patent US20160068844A1 (Sanofi, published 2016).

In one test the target is T1, human IL17A (human, UniProt Q16552 24-155).
T1 construct: also called interleukin-17A
T1 sequence (looked up): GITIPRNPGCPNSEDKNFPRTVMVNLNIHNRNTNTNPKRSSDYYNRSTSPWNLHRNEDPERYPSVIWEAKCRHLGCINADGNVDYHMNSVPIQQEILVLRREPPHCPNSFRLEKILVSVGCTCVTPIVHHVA
Put plainly: ELISA, plates coated with IL17A, serial dilutions of sIL17R, detection with biotinylated anti-IL17RA and streptavidin-HRP. As to the method:
(§1) For sIL17R binding to IL17A, ELISA plates were coated with 100 μg/ml human IL17A or mouse IL17A overnight, then blocked with 1% BSA. Serial two-fold dilutions of sIL17R were added in triplicate to the plate and incubated for 1 h at 37° C. Unbound receptor was washed from the plate in an ELISA plate washer. 100 μl biotinylated anti-IL17RA (1 μg/ml) was added to each well and incubated 1 h at room temperature and excess antibody was washed away. Each well was incubated with streptavidin-HRP conjugate and washed. Bound HRP was measured by incubation with TMBD substrate for 20 minutes followed by addition of acid stop solution. OD was measured at 450 nm.
In general terms: ELISA stands for enzyme-linked immunosorbent assay.

A further test concerns the target T2, mouse IL17A (mouse, UniProt Q62386 26-158).
T2 construct: also called recombinant mouse Il17a
T2 sequence (looked up): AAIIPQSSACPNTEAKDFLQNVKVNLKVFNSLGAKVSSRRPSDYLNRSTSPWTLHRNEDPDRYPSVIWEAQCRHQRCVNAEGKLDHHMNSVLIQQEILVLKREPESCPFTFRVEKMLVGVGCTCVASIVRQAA
The test is described as above. Here is the method: as §1

B1: sIL17R-9gly-CH3 (soluble human IL-17 receptor A linked by nine glycines to the CH3 domain of human IgG1) (Fc fusion)
chain: SLRLLDHRALVCSQPGLNCTVKNSTCLDDSWIHPRNLTPSSPKDLQIQLHFAHTQQGDLFPVAHIEWTLQTDASILYLEGAELSVLQLNTNERLCVRFEFLSKLRHHHRRWRFTFSHFVVDPDQEYEVTVHHLPKPIPDGDPNHQSKNFLVPDCEHARMKVTTPCMSSGSLWDPNITVETLEAHQLRVSFTLWNESTHYQILLTSFPHMENHSCFEHMHHIPAPRPEEFHQRSNVTLTLRNLKGCCRHQVQIQPFFSSCLNDCLRHSATVSCPEMPDTPEPIPDYMTGGGGGGGGGQPREPQVYTLPPSRDELTKNQVSLTCLVKGFYPSDIAVEWESNGQPENNYKTTPPVLDSDGSFFLYSKLTVDKSRWQQGNVFSCSVMHEALHNHYTQKSLSLSPG
notes: also called sIL17RA-9gly-CH3; sIL17R-9G-CH3
Regarding B1, the binding result with human IL17A and with mouse IL17A was “binds” throughout.
